B1: Hydantoin(C(O)-(Gly-Gly))-cyclo(Cys-Glu-His-D-Phe-Arg-Trp-Cys)-NH2 (peptide)
peptide: CEHXRWC
modifications: not fully specified; hydantoin ring from Gly 1, C(O) and the amino group of Gly 2; D-Phe 6; disulfide Cys 3-Cys 9 (cyclo); C-terminal amide
notes: residue 6 here is D-Phe
B2: Hydantoin(C(O)-(Nle-Gly))-cyclo(Cys-Glu-His-D-Phe-Arg-Trp-Cys)-NH2 (peptide)
peptide: CEHXRWC
modifications: not fully specified; hydantoin ring from Nle 1, C(O) and the amino group of Gly 2; Nle 1; D-Phe 6; disulfide Cys 3-Cys 9 (cyclo); C-terminal amide
notes: residue 6 here is D-Phe; also called Compound F
B3: cyclo[Hydantoin(C(O)-(Gly-Cys))-Glu-His-D-Phe-Arg-Trp-Cys]-NH2 (peptide)
peptide: EHXRWC
modifications: not fully specified; hydantoin ring from Gly 1, C(O) and the amino group of Cys 2; D-Phe 5; disulfide Cys 2-Cys 8 (cyclo); C-terminal amide
B4: cyclo[Hydantoin(C(O)-(Ile-Cys))-D-Ala-His-D-Phe-Arg-Trp-Cys]-NH2 (peptide)
peptide: XHXRWC
modifications: hydantoin ring from Ile 1, C(O) and the amino group of Cys 2; D-Ala 3; D-Phe 5; disulfide Cys 2-Cys 8 (cyclo); C-terminal amide
B5: Hydantoin(C(O)-(Gly-Arg))-cyclo(Cys-Glu-His-D-Phe-Arg-Trp-Cys)-NH2 (peptide)
peptide: CEHXRWC
modifications: hydantoin ring from Gly 1, C(O) and the amino group of Arg 2; D-Phe 6; disulfide Cys 3-Cys 9 (cyclo); C-terminal amide
notes: residue 6 here is D-Phe; also called Compound E
B6: Hydantoin(C(O)-(Arg-Gly))-cyclo(Cys-Glu-His-D-Phe-Arg-Trp-Cys)-NH2 (peptide)
peptide: CEHXRWC
modifications: not fully specified; hydantoin ring from Arg 1, C(O) and the amino group of Gly 2; D-Phe 6; disulfide Cys 3-Cys 9 (cyclo); C-terminal amide
notes: also called Compound C

Legend:
Test in all cases: competition with [125I]-NDP-alpha-MSH, CHO-K1 cell membranes
[1] = molecular target: T1, human melanocortin-1 receptor (human, UniProt Q01726 1-317)
T1 construct: whole, on cells; Ki assays used cellular membranes of the CHO-K1 cells; cAMP assays used the whole cells; also called hMC1; hMC-R receptor subtype 1
Description: (§1) Competitive inhibition of [¹²⁵I](Tyr²)-(Nle⁴-D-Phe⁷)α-MSH ([¹²⁵I]-NDP-α-MSH, Amersham Biosciences®) binding was carried out in polypropylene 96 well plates. […] Bound [¹²⁵I]-NDP-α-MSH ligand was separated from free [¹²⁵I]-NDP-α-MSH by filtration through GF/C glass fiber filter plates (Unifilter®; Packard) presoaked with 0.1% (w/v) polyethylenimine (PEI), using a Packard Filtermate® harvester. Filters were washed three times with 50 mM Tris-HCl at pH 7.4 at a temperature of approximately 0-4° C. and then assayed for radioactivity using a Packard Topcount® scintillation counter. Binding data were analyzed by computer-assisted non-linear regression analysis (XL fit; IDBS).

[2] = molecular target: T2, human melanocortin-5 receptor (human, UniProt P33032 1-325)
T2 construct: whole, on cells; Ki assays used cellular membranes of the CHO-K1 cells; cAMP assays used the whole cells; also called hMC5; hMC-R receptor subtype 5
Description: as §1

[3] = molecular target: T3, human melanocortin-3 receptor (human, UniProt P41968 1-323)
T3 construct: whole, on cells; Ki assays used cellular membranes of the CHO-K1 cells; cAMP assays used the whole cells; also called hMC3; hMC-R receptor subtype 3
Description: as §1

[4] = molecular target: T4, human melanocortin-4 receptor (human, UniProt P32245 1-332)
T4 construct: whole, on cells; Ki assays used cellular membranes of the CHO-K1 cells; cAMP assays used the whole cells; also called hMC4; hMC-R receptor subtype 4
Description: as §1

T1 sequence (Q01726 whole entry): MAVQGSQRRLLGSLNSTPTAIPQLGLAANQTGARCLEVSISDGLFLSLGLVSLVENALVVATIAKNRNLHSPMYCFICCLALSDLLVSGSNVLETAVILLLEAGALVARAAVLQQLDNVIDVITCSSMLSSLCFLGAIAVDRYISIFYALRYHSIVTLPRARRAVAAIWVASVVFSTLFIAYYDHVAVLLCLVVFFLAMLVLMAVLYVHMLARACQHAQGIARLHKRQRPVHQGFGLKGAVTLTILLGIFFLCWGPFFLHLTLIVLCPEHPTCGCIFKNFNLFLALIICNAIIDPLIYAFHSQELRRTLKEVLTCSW
T2 sequence (P33032 whole entry): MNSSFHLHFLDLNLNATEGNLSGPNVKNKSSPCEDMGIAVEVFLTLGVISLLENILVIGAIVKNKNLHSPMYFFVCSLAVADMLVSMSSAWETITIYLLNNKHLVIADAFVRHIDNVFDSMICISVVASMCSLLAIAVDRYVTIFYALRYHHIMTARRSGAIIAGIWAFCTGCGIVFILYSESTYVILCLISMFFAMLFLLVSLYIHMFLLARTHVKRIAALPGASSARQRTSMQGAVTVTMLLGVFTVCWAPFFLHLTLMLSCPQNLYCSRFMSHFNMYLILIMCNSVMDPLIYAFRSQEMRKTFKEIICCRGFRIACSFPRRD
T4 sequence (P32245 whole entry): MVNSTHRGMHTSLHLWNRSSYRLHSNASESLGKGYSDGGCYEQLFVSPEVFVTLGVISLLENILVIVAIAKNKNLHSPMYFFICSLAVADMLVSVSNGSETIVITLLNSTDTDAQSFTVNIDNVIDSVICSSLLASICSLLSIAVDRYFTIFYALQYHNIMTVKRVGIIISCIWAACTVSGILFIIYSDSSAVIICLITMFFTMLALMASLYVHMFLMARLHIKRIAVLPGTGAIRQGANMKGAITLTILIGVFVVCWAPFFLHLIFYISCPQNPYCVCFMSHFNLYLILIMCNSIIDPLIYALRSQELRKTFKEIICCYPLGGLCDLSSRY
T3 sequence (P41968 whole entry): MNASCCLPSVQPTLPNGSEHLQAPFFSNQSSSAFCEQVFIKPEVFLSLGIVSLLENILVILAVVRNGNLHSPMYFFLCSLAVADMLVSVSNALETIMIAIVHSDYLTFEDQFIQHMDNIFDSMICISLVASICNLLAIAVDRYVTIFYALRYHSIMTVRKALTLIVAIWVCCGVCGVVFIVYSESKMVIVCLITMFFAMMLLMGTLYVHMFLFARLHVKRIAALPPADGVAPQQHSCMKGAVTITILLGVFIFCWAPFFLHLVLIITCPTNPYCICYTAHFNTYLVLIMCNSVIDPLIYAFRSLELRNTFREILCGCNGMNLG

| Binder | Ki [1] [nM] | Ki [2] [nM] | Ki [3] [nM] | Ki [4] [nM] |
| --- | --- | --- | --- | --- |
| B1 | 11.9 | 73.9 |  |  |
| B2 | 14.3 | 67.8 |  |  |
| B3 | 15.6 | 3070 | 305 | 8.92 |
| B4 | 53.4 |  |  | 41.6 |
| B5 | 5.68 | 4220 |  |  |
| B6 | 8.59 | 7760 |  |  |

— patent US20210163536A1 (IPSEN PHARMA S A S, published 2021)
